How the values were obtained:
[1] = target: dynamic microtubules grown from GMPCPP stabilized seeds (porcine brain tubulin) (porcine) (UniProt P02550)
[2] = target: dynamic microtubules grown from GMPCPP stabilized seeds (porcine brain tubulin) (porcine) (UniProt P02550); test: FRAP (TIRF microscopy on dynamic microtubules); set-up of the buckling experiment; EB3 and HSET bleached together (488 and 561 nm lasers at 100% for 50 frames), recovery followed at free tips and in antiparallel overlaps

Row | Substance | force on a streptavidin bead coated directly with a saturating amount of biotinylated EB3 dimers, optical trap at a growing microtubule tip [1] | fluorescence recovery time at single microtubule tips (in the presence of HSET) [2] | fold slower turnover at tips in antiparallel overlaps (with HSET) against single tips [2]
1 | biotinylated EB3 dimers coupled directly to streptavidin beads (from UniProt Q9UPY8 1-281) (natural protein) | 0.5 pN |  | 
2 | mGFP-EB3 homodimer (from UniProt Q9UPY8 1-281) (natural protein) |  | 6 s | 3 fold
